In the supplement of paper PMC7125110:
± gives the standard error. Fewer inactive variants are shown than the library holds.

B1: glmS ribozyme (parent)
chain: AUAAAAGCGCCAGAACUACAGAAAUGUAGUUGACGAGGAGGAGGUUUAUCGAAUUUUCGGCGGAUGCCUCCAAA

What was measured:
Details in all cases: with glucosamine-6-phosphate
[1] = variants of: B1; assay: self-cleavage kobs at 40 uM GlcN6P; higher = faster cleavage; RNA array
In short: (§1)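 On sequenced MiSeq chips, barcoded ribozyme variants were made in situ by E. coli RNA polymerase and followed at 37 °C through a hybridised Cy3 probe. Glucosamine-6-phosphate was flowed in at 40 μM to 10 mM in HEPES/KCl/Mg(OAc)2 buffer. Exponential fits to normalised per-tile medians gave kobs, and weighted Michaelis–Menten fits gave kcat and KM.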

[2] = variants of: B1; assay: self-cleavage kobs at 160 uM GlcN6P; higher = faster cleavage; RNA array
In short: as §1

[3] = variants of: B1; assay: self-cleavage kobs at 2500 uM GlcN6P; higher = faster cleavage; RNA array
In short: as §1

[4] = variants of: B1; assay: self-cleavage kobs at 640 uM GlcN6P; higher = faster cleavage; RNA array
In short: as §1

[5] = variants of: B1; assay: self-cleavage kobs at 10000 uM GlcN6P; higher = faster cleavage; RNA array
In short: as §1

Variant | self-cleavage kobs at 40 uM GlcN6P [1] [s⁻¹] | self-cleavage kobs at 160 uM GlcN6P [2] [s⁻¹] | self-cleavage kobs at 2500 uM GlcN6P [3] [s⁻¹] | self-cleavage kobs at 640 uM GlcN6P [4] [s⁻¹] | self-cleavage kobs at 10000 uM GlcN6P [5] [s⁻¹]
G7C G35U | < 1e-05 | < 1e-05 | < 1e-05 | – | –
A36C A39C C58U C61A C71A | < 1e-05 | – | – | – | –
G9A G40C | < 1e-05 | < 1e-05 | – | < 1e-05 | –
G13A G59C | < 1e-05 | < 1e-05 | – | – | < 1e-05
A12U A39U C71U | 0.000517 ± 0.00011 | – | – | – | 0.0493 ± 0.014
C10U A42G A53U | – | < 1e-05 | – | – | –
C61U G62U | – | < 1e-05 | – | < 1e-05 | < 1e-05
G29U G37C A39U | – | < 1e-05 | – | < 1e-05 | –
U31A A33G A48G | – | < 1e-05 | – | – | –
C8U A52G | – | < 1e-05 | < 1e-05 | < 1e-05 | < 1e-05
G38A A42G G60A | – | < 1e-05 | – | – | –
A48C G62U | – | < 1e-05 | < 1e-05 | < 1e-05 | –
G7C C34U | – | < 1e-05 | < 1e-05 | < 1e-05 | < 1e-05
U56A G63C | – | < 1e-05 | < 1e-05 | – | –
G29U A42G A53U | – | 0.000316 ± 6.8e-05 | 0.00271 ± 0.00069 | 0.00125 ± 0.00026 | –
C8U G60U C68U | – | < 1e-05 | < 1e-05 | < 1e-05 | < 1e-05
A6G G32U G40A C61G | – | < 1e-05 | < 1e-05 | < 1e-05 | –
U31G G43U G66U | – | < 1e-05 | < 1e-05 | – | –
G9C A53G | – | < 1e-05 | < 1e-05 | – | < 1e-05
G38C U45A | – | < 1e-05 | – | < 1e-05 | –
U30A G32C G62A | – | < 1e-05 | < 1e-05 | – | –
C8U C11U C16G U55G | – | < 1e-05 | – | < 1e-05 | –
C50A C67U C71G | – | 4.46e-05 ± 2.1e-05 | – | 0.000107 ± 2.5e-05 | –
G9C A12G | – | < 1e-05 | < 1e-05 | – | < 1e-05
A33U G38A A39G | – | < 1e-05 | – | < 1e-05 | –

Variant | self-cleavage kobs at 40 uM GlcN6P [1] [s⁻¹] | self-cleavage kobs at 160 uM GlcN6P [2] [s⁻¹] | self-cleavage kobs at 2500 uM GlcN6P [3] [s⁻¹] | self-cleavage kobs at 640 uM GlcN6P [4] [s⁻¹] | self-cleavage kobs at 10000 uM GlcN6P [5] [s⁻¹]
G60U G63C C70G | – | < 1e-05 | – | < 1e-05 | –
C10A G40A C71A | – | < 1e-05 | – | < 1e-05 | –
A52C U65C | – | < 1e-05 | – | < 1e-05 | –
G44A U54C U65G C68G | – | < 1e-05 | < 1e-05 | < 1e-05 | –
C10G A12G G38C | – | < 1e-05 | – | < 1e-05 | –
C10G G29C C50G C58G A64U C70A | – | 0.000119 ± 3.1e-05 | 0.000165 ± 4e-05 | 0.000201 ± 6.9e-05 | –
G29A C50G | – | 0.000108 ± 3.1e-05 | 0.00038 ± 0.00019 | 3.64e-05 ± 1.5e-05 | –
C10U C11G A14G G43C A53C | – | < 1e-05 | < 1e-05 | < 1e-05 | –
C16U G37U C68G U69G | – | 4.65e-05 ± 2.2e-05 | 4.23e-05 ± 1.8e-05 | 0.000144 ± 7.1e-05 | –
G7A G43C C71U | – | < 1e-05 | – | < 1e-05 | –
G13A A33C U55A | – | < 1e-05 | < 1e-05 | < 1e-05 | –
G9A C67A C68G | – | < 1e-05 | < 1e-05 | < 1e-05 | –
G59C G62A | – | < 1e-05 | < 1e-05 | < 1e-05 | –
A14C G63C U69G | – | 7.07e-05 ± 2.1e-05 | 4.71e-05 ± 1.8e-05 | 6.64e-05 ± 2.3e-05 | –
G29A U47G A53G | – | 6.62e-05 ± 2e-05 | 0.000477 ± 0.00013 | 0.000173 ± 3.2e-05 | –
A39G G41C U46G A64U | – | < 1e-05 | – | – | –
A14G G35A U47C C67A | – | < 1e-05 | – | < 1e-05 | –
G7A U31C | – | < 1e-05 | – | < 1e-05 | –
A12U G13C U47G G60C | – | < 1e-05 | < 1e-05 | – | –
A48G U57A | – | < 1e-05 | < 1e-05 | < 1e-05 | –
C10A A33G A36U G37C C61G | – | < 1e-05 | – | < 1e-05 | –
C8A C70G | – | < 1e-05 | – | – | –
C8U U46A | – | < 1e-05 | < 1e-05 | – | < 1e-05
U30A G41U U57G G62A | – | < 1e-05 | < 1e-05 | < 1e-05 | –
G40U C61G | – | < 1e-05 | – | < 1e-05 | < 1e-05
